Consider 1 substance from patent US20240101665A1.

Experiment [1] concerns the target human G Protein coupled receptor 48 (GPR48), endogenous, in colorectal cancer cells, tissues and organoids (human) (UniProt Q9BXB1). As to the kind of experiment: cell-based or functional assay.
Experiment [2] shares this target. The experiment in a line: western blot on P6C lysate, dilution series of antibody. (In western blotting, separated proteins are transferred to a membrane and probed.)
Experiment [3] has the same target. The experiment in a line: flow cytometry on P6C cells, dilution series of antibody, FITC goat anti-mouse IgG. (In general: A flow cytometer gives signals particle by particle.)

“Commercial GPR48 monoclonal antibody, R&D Systems, clone #852229, product number MAB7750”: in experiment [1], the inhibition rate, colony formation of HCT116 cells, 10 µg/ml antibody came to 15.4%; the inhibition rate, colony formation of P6C cells, 10 µg/ml antibody came to 9.7%; the inhibition rate, colony formation of SW480 cells, 10 µg/ml antibody worked out at 26.1%. In experiment [2], this substance yielded a titer (reciprocal dilution (1:x) of 1 mg/ml) of 300. The substance further displayed a dilution factor (dilution factor) in experiment [3] of 100.
